Measured values taken from patent publication US20250332297A1, “DLL3-SPECIFIC BINDING CONSTRUCTS AND THEIR USE IN RADIOTHERAPY” (MOLECULAR PARTNERS AG, priority 2024, published 2025).
Like-named read-outs stand apart in the source and are kept apart here.

Key:
[1] = Pharmacokinetic analysis in WT BALBc mice (serum, ELISA); assay type: in vivo, mouse
Text: The pharmacokinetic (PK) properties of lead-labelled DARPin (MAM160, MAM279, MAM282, MAM283) conjugates were investigated in mice, including to determine the terminal half-life (or serum half-life) of these conjugates.
In brief, DARPins MAM279, MAM283, MAM160 and MAM282 were conjugated to the chelator DOTAM, via a C-terminal Cysteine containing tag and a connector, as described in Example 3. The conjugates were then labelled with natural lead (Pb). The protein components of the conjugates corresponded to SEQ ID NOs: 15 to 18, respectively. These lead-labelled DARPin conjugates were injected i.v. at 1 mg/kg into WT BALBc mice. Serum was collected 2 min, 10 min, 30 min, 1 h, 4 h, 24 h, 48 h, and 72 h post-injection. DARPins were detected and measured by ELISA. The data were expressed as the DARPin concentration in serum (nmol/L).
In brief, lead-labelled MAM279 conjugate, as described in Example 13, was injected i. at 0.1 mg/kg or at 1 mg/kg into the tail vein of WT BALBc mice. Serum was collected 2 min, 10 min, 30 min, 1 h, 4 h, 24 h, 48 h, and 72 h post-injection for MAM279 conjugate injected at 1 mg/kg, and 2 min, 30 min, 4 h, 24 h, 30 h, 48 h, 72 h, 96 h, and 168 h post-injection for MAM279 conjugate injected at 0.1 mg/kg. DARPins were detected and measured by ELISA. The data were expressed as the DARPin concentration in serum (nmol/L).
In brief, natural lead-labelled MAM279 conjugate, as described in Example 13, was injected i.v. at different doses (0.001 mg/kg, 0.01 mg/kg, 0.1 mg/kg, or 1 mg/kg) into the tail vein of WT BALBc mice. Similarly, unconjugated Rova was injected iv. at 1 mg/kg into the tail vein of WT BALBc mice. Serum was collected 2 min, 10 min, 30 min, 1 h, 4 h, 24 h, 48 h, and 72 h post-injection for MAM279 conjugate injected at 1 mg/kg, and 2 min, 30 min, 4 h, 24 h, 30 h, 48 h, 72 h, 96 h, and 168 h post-injection for MAM279 conjugate injected at 0.1 mg/kg, 0.01 mg/kg and 0.001 mg/kg. Serum was collected 2 min, 30 min, 4 h, 24 h, 30 h, 48 h, 72 h, 96 h, and 168 h post-injection for Rova antibody injected at 1 mg/kg. DARPins and Rova were detected and measured by ELISA. Rova PK characteristics were calculated with time points between 4 h and 168 h and MAM279 conjugate PK characteristics were calculated with time points between 4 h and 72 h. The data were expressed as the DARPin or Rova concentration in serum (nmol/L). Results are shown in FIGS. 19A and 19B and Table 22.

[2] = biological target: T1, NCI-H82 cells expressing human DLL3 (Homo sapiens, UniProt Q9NYJ7); assay: Cell binding titration on NCI-H82 cells; assay type: cell-based
T1 construct: a human lung carcinoma cell line which endogenously expresses DLL3 on the surface; host or cells: NCI-H82
T1 sequence (Q9NYJ7 27-618): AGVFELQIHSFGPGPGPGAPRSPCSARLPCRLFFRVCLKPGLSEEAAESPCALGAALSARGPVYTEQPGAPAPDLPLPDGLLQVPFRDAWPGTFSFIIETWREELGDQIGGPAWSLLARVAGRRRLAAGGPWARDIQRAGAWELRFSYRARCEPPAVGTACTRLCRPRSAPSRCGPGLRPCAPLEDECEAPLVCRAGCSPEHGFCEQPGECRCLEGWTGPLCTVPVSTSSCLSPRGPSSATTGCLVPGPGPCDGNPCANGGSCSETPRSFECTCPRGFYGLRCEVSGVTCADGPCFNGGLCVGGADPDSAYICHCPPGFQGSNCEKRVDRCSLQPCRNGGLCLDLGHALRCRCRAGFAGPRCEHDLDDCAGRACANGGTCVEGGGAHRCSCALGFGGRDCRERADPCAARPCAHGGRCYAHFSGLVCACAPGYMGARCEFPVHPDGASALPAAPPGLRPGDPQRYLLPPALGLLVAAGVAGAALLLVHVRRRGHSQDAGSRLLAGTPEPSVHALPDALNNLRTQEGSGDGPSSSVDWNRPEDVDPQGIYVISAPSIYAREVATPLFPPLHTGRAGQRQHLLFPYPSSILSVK
Method: Furthermore, cell binding titration assays were also performed with selected two domain (2D) designed ankyrin repeat proteins to determine binding to human cells expressing DLL3 endogenously, in absence and presence of human serum albumin. For this purpose, NCI-H82 cells were used, a human lung carcinoma cell line which endogenously expresses DLL3 on the surface. […] A non-binding DARPin comprising SEQ ID NO: 22 was used as a negative control.
In brief, 1×10^5 cells/well were resuspended in 100 μl DARPin dilution (500 nM, 1:5 serial diluted in PBS, 2% FBS) and incubated for 1 h at 4° C. This step was performed in absence and presence of 10 μM Human Serum Albumine (CSL Behring #150570). Cells were washed twice with PBS, 2% FBS and resuspended in 100 μl anti-DARPin antibody (rabbit anti-DARPin 1.4.8) and LIVE/DEAD cell stain (1:1000, Biolegend #423106). After incubation and washing, cells were incubated with detection antibody for 30 minutes (Goat […] IgG (H+L), AF647, Thermo Fisher #21445). Cells were fixed (Paraformaldehyde Solution, TCL119, LucernaChem) and acquired at Attune N×T (Thermo Life Technologies). Raw fcs files were exported and analyzed using FlowJo software. MFI values of live AF647-positive cells were exported from FlowJo and plotted using GraphPad Prism software.

[3] = 1 mg/kg i.v., MAM279 natural lead-labelled conjugate (time points 4-72 h), Rova unconjugated (4-168 h), Table 22
[4] = 1 mg/kg i.v., MAM279 natural lead-labelled conjugate, Rova unconjugated, Table 22
[5] = natural lead-labelled DOTAM conjugate 0.1 mg/kg i.v., Table 17
[6] = natural lead-labelled DOTAM conjugate 1 mg/kg i.v., Tables 16, 17
[7] = natural lead-labelled conjugate 0.001 mg/kg i.v., Table 22
[8] = natural lead-labelled conjugate 0.01 mg/kg i.v., Table 22
[9] = natural lead-labelled conjugate 0.1 mg/kg i.v., Table 22

B1: MAM279: Two domain (2D) ankyrin repeat protein: serum albumin-specific domain (SEQ ID NO: 7), PT linker, DLL3-specific domain of MAM093 (protein)
chain: DLGKKLLEAARAGQDDEVRELLKAGADVNAKDYFSHTPLHLAARNGHLKIVEVLLKAGADVNAKDFAGKTPLHLAADAGHLEIVEVLLKAGADVNAQDIFGKTPADIAADAGHEDIAEVLQKAAGSPTPTPTTPTPTPTTPTPTPTGSDLGKKLLAAAAQGQDDEVRELLKAGANVNAKDLFGYTPLHLAAWRGHLEIVEVLLKAGADVNAKDAAGETPLHLAAWFGHLEIVEVLLKAGADVNAQDLQGKTPADLAAKEGHEDIAEVLQKAA
modifications: Ankyrin repeat protein (MAM279)
With B1 the AUCINF_pre [1, 3] was 29.3837 µM·h, the AUClast [1, 3] was 23892.0 h*hr*nmol/L and the HL_Lambda_z [1, 3] was 30.5 h. It also gave an AUC_%Back_Ext_pre [1, 4] of 0%, an AUC_%Extrap_Pred [1, 4] of 19% and a Cl_pred [1, 4] of 1.2 mL/h/kg. For the same molecule, the Cmax [1, 4] was 1330 nM, the Tmax [1, 4] was 1.98 min and the Vss_pred [1, 4] was 0.048 L/kg. The AUCINF_pred [1, 5] was 2.4051 µM·h, the “AUC_% Back_Ext_pred” value [1, 5] was 0% and the “AUC_% Extrap_pred” value [1, 5] was 3%. For the same molecule, the AUClast [1, 5] was 2343.4 nmol·h/L, the CI_pred [1, 5] was 1.4 mL/h/kg and the Cmax [1, 5] was 88.3 nM. For the same molecule, the HL_Lambda_z [1, 5] was 32.8 h, the Tmax [1, 5] was 1.98 min and the Vss_pred [1, 5] was 0.066 L/kg. The AUCINF_pred [1, 6] was 29.3837 µM·h, the “AUC_% Back_Ext_pred” value [1, 6] was 0% and the “AUC_% Extrap_pred” value [1, 6] was 19%. For the same molecule, the AUClast [1, 6] was 23892.0 nmol·h/L, the CI_pred [1, 6] was 1.2 mL/h/kg and the Cmax [1, 6] was 1330 nM. The HL_Lambda_z [1, 6] was 30.5 h, the Tmax [1, 6] was 1.98 min and the Vss_pred [1, 6] was 0.048 L/kg. For the same molecule, the AUCINF_pre [1, 7] was 0.007 µM·h, the AUC_%Back_Ext_pre [1, 7] was 0% and the AUC_%Extrap_Pred [1, 7] was 28%. For the same molecule, the AUClast [1, 7] was 5.0 h*hr*nmol/L, the Cl_pred [1, 7] was 4.9 mL/h/kg and the Cmax [1, 7] was 0.29 nM. It also gave an HL_Lambda_z [1, 7] of 39.9 h, a Tmax [1, 7] of 1.98 min and a Vss_pred [1, 7] of 0.267 L/kg. The AUCINF_pre [1, 8] was 0.101 µM·h, the AUC_%Back_Ext_pre [1, 8] was 0% and the AUC_%Extrap_Pred [1, 8] was 3%. It also gave an AUClast [1, 8] of 98.3 h*hr*nmol/L, a Cl_pred [1, 8] of 3.4 mL/h/kg and a Cmax [1, 8] of 3.7 nM. For the same molecule, the HL_Lambda_z [1, 8] was 33.1 h, the Tmax [1, 8] was 1.98 min and the Vss_pred [1, 8] was 0.157 L/kg. For the same molecule, the AUCINF_pre [1, 9] was 2.4051 µM·h, the AUC_%Back_Ext_pre [1, 9] was 0% and the AUC_%Extrap_Pred [1, 9] was 3%. It also gave an AUClast [1, 9] of 2343.4 h*hr*nmol/L, a Cl_pred [1, 9] of 1.4 mL/h/kg and a Cmax [1, 9] of 88.3 nM. For the same molecule, the HL_Lambda_z [1, 9] was 32.8 h, the Tmax [1, 9] was 1.98 min and the Vss_pred [1, 9] was 0.066 L/kg. For the same molecule, the EC50 ([2]; absence of human serum albumin, read-out: Cell binding EC50, w/o HSA) was 2.5 nM and the EC50 ([2]; presence of 10 μM human serum albumin, read-out: Cell binding EC50, with HSA) was 2.1 nM.
